Test results from patent publication US20220332804A1 (CSL INNOVATION, published 2022).

What was measured:
Experiment in all cases: SPR, mAb captured, C2 mutant analyte;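 also: Anti-C2 mAbs captured on goat anti-human IgG Biacore CM5 chips, alanine or serine C2 surface mutants flowed over at 37 °C, double-referenced sensorgrams fitted to a 1:1 binding model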
human C2 H446A = biological target: T1, human C2 H446A (human, UniProt P06681 21-752)
T1 sequence: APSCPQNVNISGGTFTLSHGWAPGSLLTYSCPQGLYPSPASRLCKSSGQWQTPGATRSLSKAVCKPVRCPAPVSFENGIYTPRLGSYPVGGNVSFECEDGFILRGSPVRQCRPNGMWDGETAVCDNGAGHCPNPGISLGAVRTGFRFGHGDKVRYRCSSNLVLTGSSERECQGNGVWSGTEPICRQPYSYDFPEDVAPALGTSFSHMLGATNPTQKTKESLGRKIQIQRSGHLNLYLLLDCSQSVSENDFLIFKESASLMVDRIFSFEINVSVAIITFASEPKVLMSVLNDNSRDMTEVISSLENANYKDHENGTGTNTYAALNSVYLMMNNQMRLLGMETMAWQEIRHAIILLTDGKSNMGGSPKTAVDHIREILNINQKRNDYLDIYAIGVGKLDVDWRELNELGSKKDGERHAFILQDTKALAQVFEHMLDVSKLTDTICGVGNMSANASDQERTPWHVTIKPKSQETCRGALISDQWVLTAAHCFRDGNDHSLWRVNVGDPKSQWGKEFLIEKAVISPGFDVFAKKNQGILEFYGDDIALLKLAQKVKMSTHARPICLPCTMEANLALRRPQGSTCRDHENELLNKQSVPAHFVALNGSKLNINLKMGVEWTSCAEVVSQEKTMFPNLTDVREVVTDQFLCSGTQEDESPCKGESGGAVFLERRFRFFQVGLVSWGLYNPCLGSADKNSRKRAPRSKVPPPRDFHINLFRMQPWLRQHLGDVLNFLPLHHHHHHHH

human C2 E433A = biological target: T2, human C2 E433A (human, UniProt P06681 21-752)
T2 sequence: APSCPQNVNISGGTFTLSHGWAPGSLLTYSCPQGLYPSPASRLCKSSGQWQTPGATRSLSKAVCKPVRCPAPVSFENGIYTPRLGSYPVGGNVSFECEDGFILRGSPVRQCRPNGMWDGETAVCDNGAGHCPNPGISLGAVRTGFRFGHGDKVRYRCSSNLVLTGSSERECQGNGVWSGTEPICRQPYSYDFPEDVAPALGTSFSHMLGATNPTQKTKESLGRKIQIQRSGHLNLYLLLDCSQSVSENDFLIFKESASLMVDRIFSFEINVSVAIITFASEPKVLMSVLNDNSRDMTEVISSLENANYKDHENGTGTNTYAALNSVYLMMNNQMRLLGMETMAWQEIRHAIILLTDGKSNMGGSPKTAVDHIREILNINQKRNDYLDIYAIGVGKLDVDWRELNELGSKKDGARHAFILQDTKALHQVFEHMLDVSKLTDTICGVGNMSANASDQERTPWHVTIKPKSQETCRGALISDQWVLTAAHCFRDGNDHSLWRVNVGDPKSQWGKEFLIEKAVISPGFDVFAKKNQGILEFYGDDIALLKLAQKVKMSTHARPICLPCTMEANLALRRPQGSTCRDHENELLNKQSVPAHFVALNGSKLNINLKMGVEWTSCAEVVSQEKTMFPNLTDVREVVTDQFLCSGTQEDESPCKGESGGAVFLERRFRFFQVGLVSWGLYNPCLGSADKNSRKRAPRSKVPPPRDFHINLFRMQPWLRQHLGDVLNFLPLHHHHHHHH

human C2 A444S = biological target: T3, human C2 A444S (human, UniProt P06681 21-752)
T3 sequence: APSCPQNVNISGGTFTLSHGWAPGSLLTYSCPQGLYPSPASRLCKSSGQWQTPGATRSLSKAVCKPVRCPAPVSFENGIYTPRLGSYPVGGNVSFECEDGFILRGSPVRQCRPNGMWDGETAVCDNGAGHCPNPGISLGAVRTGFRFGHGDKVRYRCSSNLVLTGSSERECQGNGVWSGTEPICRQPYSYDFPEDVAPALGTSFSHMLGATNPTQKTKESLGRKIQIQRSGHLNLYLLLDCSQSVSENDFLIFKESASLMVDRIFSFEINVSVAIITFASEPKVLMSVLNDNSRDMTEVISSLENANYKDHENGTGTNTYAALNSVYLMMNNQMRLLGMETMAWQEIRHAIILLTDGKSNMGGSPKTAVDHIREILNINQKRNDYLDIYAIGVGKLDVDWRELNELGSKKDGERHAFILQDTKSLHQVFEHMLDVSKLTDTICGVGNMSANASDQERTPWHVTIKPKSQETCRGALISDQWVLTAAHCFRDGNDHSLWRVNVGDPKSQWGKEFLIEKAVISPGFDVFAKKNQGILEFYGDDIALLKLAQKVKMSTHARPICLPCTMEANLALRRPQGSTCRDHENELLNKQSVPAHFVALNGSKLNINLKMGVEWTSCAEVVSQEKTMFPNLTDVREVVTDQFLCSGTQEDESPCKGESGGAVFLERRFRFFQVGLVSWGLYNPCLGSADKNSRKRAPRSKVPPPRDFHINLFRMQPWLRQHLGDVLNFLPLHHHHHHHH

human C2 A472S = biological target: T4, human C2 A472S (human, UniProt P06681 21-752)
T4 sequence: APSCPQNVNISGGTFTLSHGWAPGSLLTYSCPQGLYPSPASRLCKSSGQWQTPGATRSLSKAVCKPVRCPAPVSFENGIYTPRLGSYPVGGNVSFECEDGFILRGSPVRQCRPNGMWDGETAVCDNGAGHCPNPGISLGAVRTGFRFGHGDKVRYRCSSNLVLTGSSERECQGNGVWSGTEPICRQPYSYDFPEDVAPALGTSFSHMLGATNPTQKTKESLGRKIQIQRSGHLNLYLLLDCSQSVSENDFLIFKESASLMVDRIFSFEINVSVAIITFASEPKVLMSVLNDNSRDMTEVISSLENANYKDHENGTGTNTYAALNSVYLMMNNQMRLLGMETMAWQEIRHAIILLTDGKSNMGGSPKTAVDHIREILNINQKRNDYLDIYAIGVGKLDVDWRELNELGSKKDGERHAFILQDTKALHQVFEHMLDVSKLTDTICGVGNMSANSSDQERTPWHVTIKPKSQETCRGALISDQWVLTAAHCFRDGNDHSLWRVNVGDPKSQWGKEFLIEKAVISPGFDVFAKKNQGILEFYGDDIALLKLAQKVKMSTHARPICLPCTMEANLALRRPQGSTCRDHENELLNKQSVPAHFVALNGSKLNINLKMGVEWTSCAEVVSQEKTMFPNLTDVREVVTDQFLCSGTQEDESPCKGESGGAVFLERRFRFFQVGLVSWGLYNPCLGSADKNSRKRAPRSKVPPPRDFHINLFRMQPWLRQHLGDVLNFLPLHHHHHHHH

Kd (human C2 H446A): 153 nM
Kd (human C2 E433A): 16.4 nM
Kd (human C2 A444S): 20.7 nM
Kd (human C2 A472S): 234 nM
B1: RF16-214 (antibody, V domains shown)
VH: EVQLLESGGGLVQPGGSLRLSCAASGFTFSWYQMMWVRQAPGKGLEWVSRIYPSGGGTAYADSVKGRFTISRDNSKNTLYLQMNSLRAEDTAVYYCARDAGYGDNWGQGTLVTVSS
VL: QSALTQPPSVSVSPGQTASITCSGDKLGEKYASWYQQKAGQSPVMVIYQDRKRPSGIPERFSGSNSGNTATLTISGTQAMDEADYYCQAWDTRAVVFGGGTKLTVLG
